Biological target: α1antichymotrypsin (ACT) (UniProt P01011)
Sequence (P01011 24-423): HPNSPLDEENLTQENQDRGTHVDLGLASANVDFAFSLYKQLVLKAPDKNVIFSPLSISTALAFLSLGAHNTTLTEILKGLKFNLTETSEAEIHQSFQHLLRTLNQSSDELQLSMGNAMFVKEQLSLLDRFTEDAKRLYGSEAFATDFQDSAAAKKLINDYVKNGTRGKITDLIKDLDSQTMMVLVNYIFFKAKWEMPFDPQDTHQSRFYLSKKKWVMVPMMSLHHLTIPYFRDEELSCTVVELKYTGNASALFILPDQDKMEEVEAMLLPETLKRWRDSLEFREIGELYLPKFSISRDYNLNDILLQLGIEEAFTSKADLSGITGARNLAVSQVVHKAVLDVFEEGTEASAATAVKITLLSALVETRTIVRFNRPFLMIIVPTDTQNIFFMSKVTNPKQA

prostate-specific antigen (PSA), mature form
cleavage of ACT (HIC-HPLC peak 1): Peak 1 is inactive ACT which has been cleaved by PSA

Source: US6423503
